Data published in US20090203886A1 (OSAKA UNIVERSITY, published 2009).
“And” between values parts separate entries of the source, which are not always exact repeats. Identical values can stand only once.

T1: human CD20 antigen (human, UniProt P11836 1-297)
T1 sequence (looked up): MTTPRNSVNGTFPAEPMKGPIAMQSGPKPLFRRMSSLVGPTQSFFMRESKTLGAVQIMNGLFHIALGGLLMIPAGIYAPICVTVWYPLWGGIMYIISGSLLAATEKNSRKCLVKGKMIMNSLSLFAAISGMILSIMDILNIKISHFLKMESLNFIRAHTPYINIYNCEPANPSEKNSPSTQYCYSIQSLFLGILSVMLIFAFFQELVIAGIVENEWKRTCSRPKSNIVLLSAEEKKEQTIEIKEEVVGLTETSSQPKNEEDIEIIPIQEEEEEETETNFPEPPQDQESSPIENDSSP


Assays:
human CD20 antigen [1] = molecular target: T1, human CD20 antigen; experiment: cell-based or functional assay
human CD20 antigen [2] = molecular target: T1, human CD20 antigen; experiment: Scatchard analysis on Raji cells, FITC anti human Fc secondary (Example 3)
Method: (§1) The reaction solution was 1% BSA-PBS solution with a cell number of 5×10⁶ cells and was injected into a 1.5 ml tube to a final volume of 100 μl. Three samples for each test antibody were prepared and four tubes to which antibody was not added were prepared as samples for background calculations.
(§2) After the detecting step, an image was digitized using image analysis software Image Quant (Amersham Bioscience) and analyzed using Excel (Microsoft). Average values for the same test antibodies were calculated and the values for background calculation samples (when only reacting a cell with a FITC-labeled secondary antibody) were subtracted from the test antibody values. The background values derived for the FITC-labeled secondary antibody binding non-specifically to cells, the PBS solution and the plate are omitted. At the same time, a standard curve was prepared by measuring the amount of fluorescence of only FITC-labeled secondary antibodies at amounts of 0, 12.5, 25, 50, 75, 100, 125, and 150 ng per 100 μl. In this manner, the number of moles of secondary antibody binding to cells was calculated. Assuming that each primary antibody and the FITC-labeled secondary antibody react at a ratio of […], the amount of cell-bound primary antibody was calculated. Primary antibody in suspension was calculated by subtracting the bound amount from the added amount. Scatchard analysis was performed using these values in order to calculate a dissociation constant Kd.

human CD20 antigen [3] = molecular target: T1, human CD20 antigen; experiment: Scatchard analysis on Raji cells (Example 3), average over the clones of the construct
Method: as §1, §2

CDC (10 ug/ml), RAJI (human CD20 antigen [1]) | CDC (10 ug/ml), RC-K8 (human CD20 antigen [1]) | CDC (10 ug/ml), SUDHL4 (human CD20 antigen [1]) | CDC (10 ug/ml), WIL2NS (human CD20 antigen [1]) | Kd (human CD20 antigen [2]) | Kd (human CD20 antigen [3]) [nM] | Binder
99 relative, c2B8 = 100 | 100 relative, c2B8 = 100 | 119 relative, c2B8 = 100 | 529 relative, c2B8 = 100 |  |  | chimerized 1K1791 antibody (c1791) (antibody, V domains shown) VH: QIQLVQSGPELKKPGETVKISCKASGYTFTNFGVNWVKQAPGKGLKWMGWINTYTGEPSYADDFKGRFAFSLEASANTAYLQINNLKNDDMSTYFCTRRTNYYGTSYYYAMDYWGQGTSVTVSS VL: STVMTQTPKFLLVSAGDRVTITCKASQSVSNDVAWYQQKPGQSPKVLIYFASNRYTGVPDRFTGSGYGTDFTFTINTVQAEDLAVYFCQQDYSSPLTFGAGTKLELK
 |  |  |  | 11.9 nM and 11.5 nM | 11.7 | humanized 1K1791 antibody as (AbbL x SdrH) (antibody, V domains shown, Kappa, gamma 1 construct; also called hz1791 as; As001) VH: QIQLVQSGSELKKPGASVKVSCKASGYTFTNFGVNWVRQAPGKGLKWMGWINTYTGEPSYAQGFTGRFAFSLDASVSTAYLQISSLKAEDTATYFCTRRTNYYGTSYYYAMDYWGQGTTVTVSS VL: STVMTQSPDSLAVSLGERATINCKSSQSVSNDVAWYQQKPGQSPKVLIYFASNRYSGVPDRFSGSGYGTDFTLTISSLQAEDVAVYFCQQDYSSPLTFGAGTKLEIK
 |  |  |  | 10.7 nM and 9.17 nM | 9.94 | humanized 1K1791 antibody av (AbbL x VenH) (antibody, V domains shown, Kappa, gamma 1 construct; also called hz1791 av; Av004) VH: QIQLVQSGPELKKPGASVKISCKASGYTFTNFGVNWVKQAPGKGLKWMGWINTYTGEPSYADDFKGRFAFSLDASVSTAYLQISSLKAEDTSTYFCTRRTNYYGTSYYYAMDYWGQGTTVTVSS VL: STVMTQSPDSLAVSLGERATINCKSSQSVSNDVAWYQQKPGQSPKVLIYFASNRYSGVPDRFSGSGYGTDFTLTISSLQAEDVAVYFCQQDYSSPLTFGAGTKLEIK
 |  |  |  | 6.33 nM and 11.1 nM | 8.71 | humanized 1K1791 antibody fs (FraL x SdrH) (antibody, V domains shown, Kappa, gamma 1 construct; also called hz1791 fs; Fs007) VH: QIQLVQSGSELKKPGASVKVSCKASGYTFTNFGVNWVRQAPGKGLKWMGWINTYTGEPSYAQGFTGRFAFSLDASVSTAYLQISSLKAEDTATYFCTRRTNYYGTSYYYAMDYWGQGTTVTVSS VL: STVMTQSPSFLSASVGDRVTITCKASQSVSNDVAWYQQKPGQSPKVLIYFASNRYTGVPDRFSGSGYGTDFTLTISSLQAEDVAVYFCQQDYSSPLTFGAGTKLEIK
 |  |  |  | 11.7 nM and 9.96 nM | 10.8 | humanized 1K1791 antibody aa (AbbL x AbbH) (antibody, V domains shown, Whole humanized antibody from CHO cells; construct name ends kg1 (kappa, gamma 1); The two clones are producer clones of one construct; also called hz1791 aa; Aa008) VH: QIQLVQSGSELKKPGASVKVSCKASGYTFTNFGVNWVRQAPGKGLEWMGWINTYTGEPSYAQGFTGRFVFSLDASVSTAYLQISSLKAEDTATYFCTRRTNYYGTSYYYAMDYWGQGTTVTVSS VL: STVMTQSPDSLAVSLGERATINCKSSQSVSNDVAWYQQKPGQSPKVLIYFASNRYSGVPDRFSGSGYGTDFTLTISSLQAEDVAVYFCQQDYSSPLTFGAGTKLEIK
 |  |  |  | 14.7 nM | 14.7 | humanized 1K1791 antibody sa (SdrL x AbbH) (antibody, V domains shown, Kappa, gamma 1 construct; also called hz1791 sa; Sa023) VH: QIQLVQSGSELKKPGASVKVSCKASGYTFTNFGVNWVRQAPGKGLEWMGWINTYTGEPSYAQGFTGRFVFSLDASVSTAYLQISSLKAEDTATYFCTRRTNYYGTSYYYAMDYWGQGTTVTVSS VL: STVMTQSPDSLAVSLGERATINCKSSQSNSNDVAWYQQKPGQSPKVLIYFASNRYSGVPDRFSGSGYGTDFTLTISSLQAEDVAVYFCQQDYSSPLTFGAGTKLEIK
 |  |  |  | 11.3 nM and 8.83 nM | 10.1 | humanized 1K1791 antibody fa (FraL x AbbH) (antibody, V domains shown, Kappa, gamma 1 construct; also called hz1791 fa; Fa007) VH: QIQLVQSGSELKKPGASVKVSCKASGYTFTNFGVNWVRQAPGKGLEWMGWINTYTGEPSYAQGFTGRFVFSLDASVSTAYLQISSLKAEDTATYFCTRRTNYYGTSYYYAMDYWGQGTTVTVSS VL: STVMTQSPSFLSASVGDRVTITCKASQSVSNDVAWYQQKPGQSPKVLIYFASNRYTGVPDRFSGSGYGTDFTLTISSLQAEDVAVYFCQQDYSSPLTFGAGTKLEIK
 |  |  |  | 6.84 nM and 8.67 nM | 7.76 | humanized 1K1791 antibody af (AbbL x FraH) (antibody, V domains shown, Kappa, gamma 1 construct; also called hz1791 af; Af021) VH: QIQLVQSGSELKKPGASVKVSCKASGYTFTNFGVNWVKQAPGKGLKWMGWINTYTGEPSYADDFKGRFAFSLDASASTAYLQISSLKAEDMATYFCTRRTNYYGTSYYYAMDYWGQGTTVTVSS VL: STVMTQSPDSLAVSLGERATINCKSSQSVSNDVAWYQQKPGQSPKVLIYFASNRYSGVPDRFSGSGYGTDFTLTISSLQAEDVAVYFCQQDYSSPLTFGAGTKLEIK
